According to paper PMC10872465 (Molecular cell, 2023):

T1: MBP-HDAC8 (UniProt Q9BY41 8-374)
T1 sequence (looked up): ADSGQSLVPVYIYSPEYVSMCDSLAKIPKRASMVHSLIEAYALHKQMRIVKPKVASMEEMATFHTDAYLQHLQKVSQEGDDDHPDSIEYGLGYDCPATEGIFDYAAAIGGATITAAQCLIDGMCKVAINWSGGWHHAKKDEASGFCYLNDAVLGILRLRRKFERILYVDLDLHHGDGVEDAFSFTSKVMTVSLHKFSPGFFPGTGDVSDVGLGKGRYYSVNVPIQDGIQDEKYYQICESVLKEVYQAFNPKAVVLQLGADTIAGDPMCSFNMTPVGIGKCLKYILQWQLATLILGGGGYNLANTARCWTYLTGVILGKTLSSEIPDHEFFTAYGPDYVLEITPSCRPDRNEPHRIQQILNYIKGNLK

B1: hRpn13 (1–150) (domain or fragment, human, UniProt Q16186 1-150, looked up)
chain: MTTSGALFPSLVPGSRGASNKYLVEFRAGKMSLKGTTVTPDKRKGLVYIQQTDDSLIHFCWKDRTSGNVEDDLIIFPDDCEFKRVPQCPSGRVYVLKFKAGSKRLFFWMQEPKTDQDEEHCRKVNEYLNNPPMPGALGASGSSGHELSAL

Experiments:
Experiment in all cases: NMR titration
[1] = biological target: PADI4 (1–663) (UniProt Q9UM07 1-663)
PADI4 (1–663), sequence (Q9UM07 whole entry): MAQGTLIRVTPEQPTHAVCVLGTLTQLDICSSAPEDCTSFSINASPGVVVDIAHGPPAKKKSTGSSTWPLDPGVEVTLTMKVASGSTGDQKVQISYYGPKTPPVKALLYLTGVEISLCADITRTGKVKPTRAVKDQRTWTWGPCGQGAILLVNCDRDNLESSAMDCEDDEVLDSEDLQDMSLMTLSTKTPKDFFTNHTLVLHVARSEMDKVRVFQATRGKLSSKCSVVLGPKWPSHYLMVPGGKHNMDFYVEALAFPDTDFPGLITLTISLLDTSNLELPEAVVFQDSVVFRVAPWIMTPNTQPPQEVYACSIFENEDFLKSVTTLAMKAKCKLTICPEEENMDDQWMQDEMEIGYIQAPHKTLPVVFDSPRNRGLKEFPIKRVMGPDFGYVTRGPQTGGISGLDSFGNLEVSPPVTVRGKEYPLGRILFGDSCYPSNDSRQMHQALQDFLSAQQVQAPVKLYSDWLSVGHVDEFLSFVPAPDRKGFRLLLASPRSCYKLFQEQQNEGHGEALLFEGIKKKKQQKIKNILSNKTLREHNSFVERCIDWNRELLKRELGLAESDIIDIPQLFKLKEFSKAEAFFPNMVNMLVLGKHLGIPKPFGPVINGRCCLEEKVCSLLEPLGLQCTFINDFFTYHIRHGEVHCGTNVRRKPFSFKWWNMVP

[2] = biological target: T1, MBP-HDAC8
[3] = biological target: B1

binding result [1] | binding result [2] | binding result [3] | Binder
binds | binds | – | B1
– | – | binds | QEPEPPEPFEYIDD (peptide, UniProt Q99460 940-953, looked up) [hRpn2 (940–953)]
